Among the data in patent US20260184748A1, “COMPOSITIONS COMPRISING OCTADECANEUROPEPTIDES (ODN) AND SYNTHETIC DERIVATIVES THEREOF AND METHODS OF USE FOR MODULATION OF FOOD INTAKE, OBESITY, BODY WEIGHT, NAUSEA, AND EMESIS” (The Trustees of the University of Pennsylvania, priority 2022, published 2026) are EC50 values, retold here.

The assay concerns the target CXCR6 (Homo sapiens, UniProt O00574). Kind of assay: Arrestin agonist mode. The assay is classed as cell-based. The settings on record: read-out: RC50 (the source's name).

Sequence of CXCR6 (O00574 whole entry): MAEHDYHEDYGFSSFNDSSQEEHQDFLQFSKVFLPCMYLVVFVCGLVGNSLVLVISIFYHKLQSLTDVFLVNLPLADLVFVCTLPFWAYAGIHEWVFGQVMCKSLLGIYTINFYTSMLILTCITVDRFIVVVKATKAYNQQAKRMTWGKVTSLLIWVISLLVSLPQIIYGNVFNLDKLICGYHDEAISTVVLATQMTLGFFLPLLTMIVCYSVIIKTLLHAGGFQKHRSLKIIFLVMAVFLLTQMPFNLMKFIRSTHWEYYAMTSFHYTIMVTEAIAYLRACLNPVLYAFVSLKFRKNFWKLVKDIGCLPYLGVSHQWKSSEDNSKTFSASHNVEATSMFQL

B1: CXCL16: control agonist (protein)
chain: NEGSVTGSCYCGKRISSDSPPSVQFMNRLRKHLRAYHRCLYYTRFQLLSWSVCGGNKDPWVQELMSCLDLKECGHAYSGIVAHQKHLLP
Regarding B1, the EC50 was found to be 6.81 nM.
